The test deals with T1, mouse AIM II (LIGHT), membrane-bound (mouse, UniProt Q9QYH9 1-239).
T1 construct: whole, on cells; On human 293 cells transfected with pmAIM II (flow cytometry); also called mAIM II; pmAIM II-transfected 293 cells
T1 sequence (looked up): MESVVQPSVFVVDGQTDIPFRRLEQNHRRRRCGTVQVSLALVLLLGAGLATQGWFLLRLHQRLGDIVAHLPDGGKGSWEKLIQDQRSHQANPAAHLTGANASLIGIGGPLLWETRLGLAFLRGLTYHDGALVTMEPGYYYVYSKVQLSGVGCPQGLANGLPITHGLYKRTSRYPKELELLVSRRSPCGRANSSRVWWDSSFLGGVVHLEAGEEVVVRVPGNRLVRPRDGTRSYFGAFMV
Description: flow cytometry, mouse LTβR-Ig (1 µg in 50 µl) on 293 cells transfected with pmAIM II, FITC goat anti-human IgG. The procedure: Flow cytometric analysis. Human 293 cells (1×10⁶ cells) were transfected with either mouse AIM II pcDNA3 vector (10μg) or mock vector (10 μg) by calcium phosphate methods. After 30 hr of transfection, 293 cells were harvested and stained with 1 μg of mouse LTβR-Ig or the anti-AIM II antibody in 50 μl of PBS supplemented with 5% FBS and 0.02% azide for 30 min at 4° C. The cells were then washed and further incubated with FITC-conjugated anti-human IgG or anti-rabbit IgG for 30 min at 4° C., respectively. Fluorescence was analyzed by a FACSCalibur flow cytometry (Becton Dickinson, Mountain View, Calif.) with Cell Quest software (Becton Dickinson).

B1: mouse LTβR-Ig fusion protein (mouse LTβR extracellular domain fused to the Fc portion of human IgG1) (Fc fusion, UniProt P50284 31-223, looked up)
chain: QLVPPYRIENQTCWDQDKEYYEPMHDVCCSRCPPGEFVFAVCSRSQDTVCKTCPHNSYNEHWNHLSTCQLCRPCDIVLGFEEVAPCTSDRKAECRCQPGMSCVYLDNECVHCEEERLVLCQPGTEAEVTDEIMDTDVNCVPCKPGHFQNTSSPRARCQPHTRCEIQGLVEAAPGTSYSDTICKNPPEPGAMLL
notes: extracellular domain; Made in BHK/VP16 cells, purified on Protein A; not shown: Fc portion of human IgG1 (vector pX58)
Regarding B1, the binding result is “binds”.

The values are drawn from patent US20040009147A1 (Human Genome Sciences, published 2004).
